The text below walks through data of paper PMC6669014.

This test concerns the target NRTN-GFRα2 complex (wild type) (human) (UniProt Q99748). Briefly: SPR.
Sequence of UniProt Q99748 (Q99748 97-197, chain 1 of 2): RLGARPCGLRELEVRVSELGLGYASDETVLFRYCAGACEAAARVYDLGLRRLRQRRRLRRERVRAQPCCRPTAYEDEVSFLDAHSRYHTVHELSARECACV
Sequence of UniProt Q99748 (O00451 22-441, chain 2 of 2, further chain): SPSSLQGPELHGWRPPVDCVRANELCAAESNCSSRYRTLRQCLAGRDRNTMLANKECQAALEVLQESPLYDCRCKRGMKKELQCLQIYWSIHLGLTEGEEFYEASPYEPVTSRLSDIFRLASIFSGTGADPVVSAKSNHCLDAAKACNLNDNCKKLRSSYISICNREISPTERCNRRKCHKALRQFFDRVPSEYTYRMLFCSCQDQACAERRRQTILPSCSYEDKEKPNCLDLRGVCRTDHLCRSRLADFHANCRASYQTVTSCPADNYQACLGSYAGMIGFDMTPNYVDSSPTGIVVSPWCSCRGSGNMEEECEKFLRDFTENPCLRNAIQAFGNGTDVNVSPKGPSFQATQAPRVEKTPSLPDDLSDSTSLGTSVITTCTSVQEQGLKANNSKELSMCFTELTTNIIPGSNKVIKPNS

Take “human RET extracellular domain (RET^ECD, 29 to 635) (from UniProt P07949 29-635) (receptor)”: the increase in response over NRTN alone was determined as 150 RU.
